Test results as given in US20170166631A1 (published 2017).
Read-outs that look alike come from different tables or passages of the source.

How the values were obtained:
Assay in all cases: ELISA
[1] = target: T1, HD21 (huntingtin exon 1 protein with 21 polyQ repeats after cleavage of the GST tag; aggregation reaction) (human, UniProt P42858 1-88)
T1 chain: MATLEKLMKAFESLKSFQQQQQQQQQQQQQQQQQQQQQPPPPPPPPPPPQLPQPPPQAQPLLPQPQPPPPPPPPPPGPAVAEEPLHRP

[2] = target: T2, HD49 (huntingtin exon 1 protein with 49 polyQ repeats after cleavage of the GST tag; aggregation reaction) (human, UniProt P42858 1-88)
T2 chain: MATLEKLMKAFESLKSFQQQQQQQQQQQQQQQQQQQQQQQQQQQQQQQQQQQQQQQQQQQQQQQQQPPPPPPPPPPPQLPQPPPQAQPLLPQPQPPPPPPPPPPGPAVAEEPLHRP

[3] = target: T3, GST-HttExon1Q21 (recombinant huntingtin exon 1 protein with 21 polyQ repeats fused to an N-terminal GST tag) (;human, UniProt P08515 1-218 = GST; P42858 1-88)
[4] = target: T1, HD21 (huntingtin exon 1 protein with 21 …)
[5] = target: T2, HD49 (huntingtin exon 1 protein with 49 …)
[6] = target: T3, GST-HttExon1Q21 (recombinant huntingtin …); remark: listed apart in the source
[7] = target: T1, HD21 (huntingtin exon 1 protein with 21 …)
[8] = target: T2, HD49 (huntingtin exon 1 protein with 49 …)
[9] = target: T3, GST-HttExon1Q21 (recombinant huntingtin …); remark: listed apart in the source
[10] = target: T1, HD21 (huntingtin exon 1 protein with 21 …)
[11] = target: T2, HD49 (huntingtin exon 1 protein with 49 …)
[12] = target: T3, GST-HttExon1Q21 (recombinant huntingtin …); remark: listed apart in the source
[13] = target: T1, HD21 (huntingtin exon 1 protein with 21 …)
[14] = target: T2, HD49 (huntingtin exon 1 protein with 49 …)
[15] = target: T3, GST-HttExon1Q21 (recombinant huntingtin …); remark: listed apart in the source
[16] = target: T4, BSA-coupled synthetic peptide of the P-rich domain sequence of huntingtin exon 1 (coupled to BSA)
T4 peptide: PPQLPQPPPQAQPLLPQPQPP

[17] = target: T1, HD21 (huntingtin exon 1 protein with 21 …)
[18] = target: T2, HD49 (huntingtin exon 1 protein with 49 …)
[19] = target: T3, GST-HttExon1Q21 (recombinant huntingtin …); remark: listed apart in the source
Target sequence in this assay (P08515 1-218, tags or fused parts left off): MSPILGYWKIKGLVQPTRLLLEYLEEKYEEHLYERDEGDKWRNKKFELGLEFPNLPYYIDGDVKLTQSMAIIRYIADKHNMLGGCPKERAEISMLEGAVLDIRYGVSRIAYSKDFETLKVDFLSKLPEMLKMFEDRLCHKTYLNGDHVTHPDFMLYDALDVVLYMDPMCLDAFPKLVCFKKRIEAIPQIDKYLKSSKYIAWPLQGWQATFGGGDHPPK

B1: NI-302.44D7 (antibody, V domains shown)
VH: EVQLVQSGGGLVQPGGSLRLSCAASGFTFSSYAMSWVRQAPGKGLEWVSGIGYSDTSTYYADSVKGRFTVSRDISKNTLYLQMNSLRAEDTAVYYCAKGTRDYYGMDVWGQGTMVTVSS
VL: QTVVTQEPSFSVSPGGTVTLTCGLSSGSVSTSYYPSWYQQTPGRAPRTLIYSTNTRSSGVPDRFSGSILGNKAALTITGAQADDESDYYCVLFMGSGIGVFGGGTRLTVL
EC50 [1]: 11 nM
EC50 [2]: 10 nM
EC50 [3]: 5.4 nM
EC50 [4]: 11 nM
EC50 [5]: 10 nM
EC50 [6]: 5.4 nM

B2: NI-302.7A8 (antibody, V domains shown)
VH: EVQLVESGGGSVQPGGSLRLSCVASGFIFRNSWMTWVRQDPGKGLEWVANIKEDGSRTYYVDSVKGRFTISRDNAKNSLYLQMNSLRAEDTAVYYCARGDYNSGIYYFPGDYWGQGTLVTVSS
VL: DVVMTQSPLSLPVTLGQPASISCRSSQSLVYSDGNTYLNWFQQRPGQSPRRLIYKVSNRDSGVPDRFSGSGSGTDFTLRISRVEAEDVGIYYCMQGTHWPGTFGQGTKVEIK
EC50 [7]: 0.4 nM
EC50 [8]: 1.5 nM
EC50 [9]: 0.2 nM
EC50 [4]: 0.4 nM
EC50 [5]: 1.5 nM
EC50 [6]: 0.2 nM

B3: NI-302.71F6 (antibody, V domains shown)
VH: QVQLQQWGAGLLKPSETLSLTCAVYGGSLSGYYWSWIRQPPGKGLEWIGEVNHSGGTNLNSSLKSRVIISVDKSKKQFSLKLSSVTAADTAMYFCARGYSYDPKYYFDSWSQGTLVTVSS
VL: QSALTQPASVSGSPGQAITISCTGTSSDIGSYDFVSWYQQDPGKAPKVIIYGVNKRPSGVSNRFSGSKSGNTASLTISGLQADDEADYYCCSYAGSTTWVFGGGTKLTVL
EC50 [10]: 7.6 nM
EC50 [11]: 4.4 nM
EC50 [12]: 3 nM
EC50 [4]: 7.6 nM
EC50 [5]: 4.4 nM
EC50 [6]: 3 nM

B4: NI-302.46C9 (antibody, V domains shown)
VH: QVQLQESGPGLVKPSQTLSLTCTVSGASVSSGAYYWSWIRQPAGKRLEWIGRVYPTWSTNYNPSLESRVTISLDTSNNQFSLKLTSLTAADTAVYYCAREAPGDYDAAPLAYWGQGTLVTVSS
VL: DIQMTQSPSSLSASVGDRVTITCRASQYISHYLNWYRQKPGKAPQLVIYAASSLQSEVPSRFSGSGSGPEFTLTISSLQPEDFATYYCQQSYTTPRTFGQGTKLEIK
EC50 [13]: 0.3 nM
EC50 [14]: ~0.05 nM
EC50 [15]: ~0.07 nM
EC50 [4]: 0.3 nM
EC50 [5]: 0.05 nM
EC50 [6]: 0.07 nM

B5: NI-302.15D3 (antibody, V domains shown)
VH: EVQLVESGGDLVQPGGSLRLSCAASGFTFSSYWMHWVRQAPGKGLVWVSRISNDGSSKTYADSVKGRFTISRDNAKNTLYLQMNSLRAEDTAVYYCAILGGYCSSTSCRPFDNWGQGTLVTVSS
VL: QSALTQPASVSGSPGQSITISCTGTSSDVGVYNYVSWYQQHPGKAPKLMIFDVSNRPSGISNRFSGSKSGNTASLTISGLQAEDEADYYCSSYTSSDTWVFGGGTKLTIL
EC50 [16]: 1.2 nM
EC50 [17]: 6.4 nM
EC50 [18]: 15 nM
EC50 [19]: 4.2 nM
EC50 [13]: 6.4 nM
EC50 [14]: 15 nM
EC50 [15]: 4.2 nM

B6: NI-302.37C12 (antibody, V domains shown)
VH: EVQLVESGGGLVQPGGSLRLSCVASALTVTNSQMTWVRRAPGRGLEWVSVIYTSGSAYYADSVKGRFTISRDNSKNTVFLQMNSLRVEDTAVYYCAKGPSAYYYGLDLWGQGTTVTVSS
VL: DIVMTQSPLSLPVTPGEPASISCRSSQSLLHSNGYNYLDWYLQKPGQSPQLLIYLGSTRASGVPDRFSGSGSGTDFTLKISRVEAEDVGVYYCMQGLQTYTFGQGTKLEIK
EC50 [1]: 2.5 nM
EC50 [2]: 4.9 nM
EC50 [3]: 0.3 nM
EC50 [4]: 2.5 nM
EC50 [5]: 4.9 nM
EC50 [6]: 0.33 nM

B7: NI-302.11H6 (antibody, V domains shown)
VH: EVQLVQSGAVMKKPGDSVRVSCRASTYSFSTYSFTWVRQVPGQGLEWMGWISAYNGHTNYVDSFQGRLTLTTDTSASTAYMELRSLRSDDTAIYYCAAVDTTYYYYGMDVWGQGTLVTVSS
VL: QTVVTQEPTFSVSPGGTVTLTCALRFGSVSSSYYPSWFQQTPGQAPRTLIYSTNTRSSGVPARFSGSILGNKAALTIAGAQANDEADYYCVLYMGSGIGVFGGGTKLTVL
EC50 [10]: 1.22 nM
EC50 [11]: 0.16 nM
EC50 [12]: 0.24 nM
EC50 [4]: 1.2 nM
EC50 [5]: 0.2 nM
EC50 [6]: 0.2 nM

B8: NI-302.78H12 (antibody, V domains shown)
VH: QVQLQESGPGLVKPSETLSLTCLVSSYSISNGYYWGWIRQPPGKGLEWIGSIYHNGNTYYNPSLKSRVIISVDTSKNQFSLKLRSVTAADTAVYYCAMPSATYYYGSGTQFHAFDVWGQGTTVTVSS
VL: QSALTQPRSVSGSPGQSVTISCTGTSRDVGNYNYVSWYQQHPGEVPKLIIYDVSERPSGVPDRFSGSKSGNTASLTISGLQAEDEADYYCCSYAGSYTFEVFGGGTKLTVL
EC50 [7]: 1.1 nM
EC50 [8]: 1.6 nM
EC50 [9]: 0.5 nM
EC50 [4]: 1.1 nM
EC50 [5]: 1.6 nM
EC50 [6]: 0.5 nM

B9: NI-302.3D8 (antibody, V domains shown)
VH: EVQLVQSGGGLVQPGGSLRLSCEASGFIFKTYAMSWVRQLPGRGLEWVSAISATGGSTFYAESVKGRLTISRDTAKNTVYLQMNNLRAEDTAMYYCAKGSTAVYLFDSWGQGTLVTVSS
VL: DIQMTQSPSSLSASVGDRVTLTCRASQDIRNFLAWIQQKPGKPPKSLIYAASTLQSGVPSRFSGSGSGTDFTLTISSLHPEDFATYYCQQFYNYPPTFGQGTKVEIK
EC50 [10]: 0.02 nM
EC50 [11]: 0.03 nM
EC50 [12]: 0.05 nM
EC50 [4]: 0.02 nM
EC50 [5]: 0.03 nM
EC50 [6]: 0.05 nM

B10: NI-302.22H9 (antibody, V domains shown)
VH: EVQLVESGGGLVHPWGSLRVSCAASGFSVSNYAITWVRQAPGKGLEYISVIYRDGRTYYGDSVRGRFTISRDDSKNTIYLQMNSLRFEDTAVYYCARAHGQYYYGVDVWGQGTTVTVSS
VL: DVVMTQSPLSLSVSPGEPASISCRSSQSLLHSNGYNYLDWYRQKPGQSPQLLIYLNSNRASGVPDRFSGSGSGTEFTLTISRVEAEDVGVYYCMQSLQTFTFGGGTKVEIK
EC50 [1]: 11 nM
EC50 [2]: 21 nM
EC50 [3]: 1.6 nM
EC50 [4]: 11 nM
EC50 [5]: 22 nM
EC50 [6]: 1.6 nM

B11: NI-302.2A2 (antibody, V domains shown)
VH: EVQLVESGGGLVQPGGSLRLSCAASGFTFSTYWMNWVRQAPGKGLEWVANIKPDGSDKYYVDSVKGRFTISRDNAKNSLYLQMNSLRDEDTAVYYCARGDGSGWNVYWGQGTLVTVSS
VL: DIQMTQSPDSLAVSLGERATINCKSSQSLLYTSKNKDSKNYLGWYQQKPGQPPKLLIYWASTRESGVPDRFSGSGSGTDFTLTISSLQAEDVAVYYCQQYYTTPQFGGGTKVEIK
EC50 [16]: 1.4 nM
EC50 [17]: 12.3 nM
EC50 [18]: > 100 nM
EC50 [19]: 10.1 nM
EC50 [13]: 12.3 nM
EC50 [14]: ~100 nM
EC50 [15]: 10.1 nM
